According to US20250186597A1, “TARGETED IMMUNE ACTIVATION WITH IL-18 IMMUNOCYTOKINES” (BRIGHT PEAK THERAPEUTICS AG, priority 2023, published 2025):

Experiments:
Type in all cases: cell-based, human
NK92 cells = test: IFN gamma secretion assay in NK92 cells (Example 10); details: IFNγ secretion, 1 ng/ml IL-12
Description: The IFNγ-secretion stimulating activity of the unconjugated IL-18 variants and corresponding IL-18 immunocytokines was evaluated on NK92 cell line. The NK cell line NK-92 derived from a patient with lymphoma (ATCC, Cat #CRL-2407) was cultured in aMEM medium supplemented with 12.5% FCS, 12.5% horse serum (HS), 50 uM B-mercaptoEthanol, and 2 ng/ml of recombinant Human Interleukin-2 (IL-2).
On the day of experiment, cells were harvested and washed with aMEM medium without IL-2 and resuspended in medium (w/o IL-2) containing 1 ng/ml of recombinant human Interleukin-12 (SinoBiologicals, Cat #CT011-H08H). After counting, cells were seeded at 100 000 cells/well in a 384 well titer plate and incubated at 37° C./5% CO2. Sixteen 4-fold serial dilutions of IL-18 analytes were prepared in aMEM medium—1 ng/ml IL-12 and were added to the NK-92 cells. […]
(§1) After 16-20 h incubation at 37° C./5% CO2, 5 μl of supernatant were carefully transferred to a 384 microwells OPTIPlate (Perkin Elmer; Cat #6007270) and Interferon-gamma (IFNγ) levels measured using the Human IFNγ AlphaLISA Assay Kit (Perkin Elmer, Cat #AL217C). […] AlphaLisa signal was then measured on an Enspire plate reader (Perkin Elmer) using 680 and 615 nm as excitation and emission wavelengths respectively. Half maximal effective concentration (EC50) was calculated based on a variable slope, four parameter analysis using GraphPad PRISM software.

[1] = system: PD-1positive transduced NK-92 cells; test: IL-18BP mediated inhibition of IFN gamma secretion in PD-1 positive transduced NK-92 cells (Example 18)
Description: To characterize the resistance of anti-PD1-IL18 immunocytokines (IC) on PD-1 positive cells, the NK-92 cell line was used to generate a PD-1 expressing cell line and furthermore, to measure the inhibition of IFN[…] release upon incubation with IL-18 variants and ICs in the presence of increasing quantities of human IL-18BP.
On the day of experiment, parental PD-1^negative and PD-1^positive transduced cells were harvested and washed with PBS 1× and resuspended in medium (w/o IL-2) containing 1 ng/ml of recombinant human Interleukin-12 (SinoBiologicals, Cat #CT011-H08H). After counting, cells were seeded at 100 000 cells/well in a 384 well culture plate and incubated at 37° C./5% CO2. When indicated, cells were preincubated with anti-PD-1 antibody LZM-009 at 17 uM during 30 min at 37° C. […]
as §1, with “microwell OptiIPlate” for “microwells OPTIPlate”, “AlphaLISA” for “AlphaLisa”, “inhibitory” for “effective”, “(IC50)” for “(EC50)”

[2] = system: parental PD-1 negative KG-1 cells; test: IFN gamma secretion assay in parental PD-1 negative KG-1 cells (Example 11); details: IFNγ secretion
Description: The KG-1 cell line was used to generate a PD-1 expressing cell line and furthermore, to measure IFNγ release upon incubation with IL-18 variants and corresponding IL-18 immunocytokines.
IFNγ release was assessed in PD-1 positive (transduced) KG-1 cells, as well as in the parental PD-1 negative cells. 0.5×10^5 cells were seeded into a 96-well U-bottom plate in culture media (RPMI, 10% FBS, 1% L-Glutamine) and stimulated with IL-18 variants/ICs for 20-24 h. The test items were diluted to 100 nM in culture medium, followed by 7 10-fold serial dilutions. The lowest concentration assessed was […]. After incubation, IFNγ release was measured using the LEGENDplex custom human mix and match KIT (Biolegend LEGENDplex™ Human IFN-γ Capture Bead B5, 13X #740942, LEGENDplex™ HU Essential Immune Response Panel Detection Abs, #740931, LEGENDplex™ Buffer Set A #740368). To this end, cell culture supernatant was collected and diluted 1:1 with Assay Buffer. Fluorescence measurements were done with a Quanteon Flow Cytometer from Acea Biosciences. For analysis, MFI values (median fluorescence intensity) were exported and plotted against concentrations used. The EC50 values (half maximal effective concentration) were calculated based on a variable slope and four parameter analysis using GraphPad PRISM software version 9.

- EC50 (NK92 cells): 2 pM
- IC50 ([1]; IL-18BP-mediated inhibition of IFNγ secretion, IL-18 analyte 1 nM): 80.3 nM
- PD-1^pos/PD-1^neg IC50 ratio ([1]; NK-92 cells): 1.0
B1: SEQ ID NO: 30: IL-18 polypeptide: E6K, V11I, C38A, K53A, T63A, C76A, C127A (protein)
chain: YFGKLKSKLSIIRNLNDQVLFIDQGNRPLFEDMTDSDARDNAPRTIFIISMYADSQPRGMAVAISVKCEKISTLSAENKIISFKEMNPPDNIKDTKSDIIFFQRSVPGHDNKMQFESSSYEGYFLAAEKERDLFKLILKKEDELGDRSIMFTVQNED
- EC50 [2]: 0.012 nM
